Here are results for 7 substances from USRE46211.

The first test concerns the target mouse myosin IIb (myosin heavy chain IIb), 200 kDa skeletal muscle protein (mouse) (UniProt Q5SX39). Kind of test: cell-based or functional assay.
UniProt Q5SX39, sequence (Q5SX39 whole entry, the tested form may be a part): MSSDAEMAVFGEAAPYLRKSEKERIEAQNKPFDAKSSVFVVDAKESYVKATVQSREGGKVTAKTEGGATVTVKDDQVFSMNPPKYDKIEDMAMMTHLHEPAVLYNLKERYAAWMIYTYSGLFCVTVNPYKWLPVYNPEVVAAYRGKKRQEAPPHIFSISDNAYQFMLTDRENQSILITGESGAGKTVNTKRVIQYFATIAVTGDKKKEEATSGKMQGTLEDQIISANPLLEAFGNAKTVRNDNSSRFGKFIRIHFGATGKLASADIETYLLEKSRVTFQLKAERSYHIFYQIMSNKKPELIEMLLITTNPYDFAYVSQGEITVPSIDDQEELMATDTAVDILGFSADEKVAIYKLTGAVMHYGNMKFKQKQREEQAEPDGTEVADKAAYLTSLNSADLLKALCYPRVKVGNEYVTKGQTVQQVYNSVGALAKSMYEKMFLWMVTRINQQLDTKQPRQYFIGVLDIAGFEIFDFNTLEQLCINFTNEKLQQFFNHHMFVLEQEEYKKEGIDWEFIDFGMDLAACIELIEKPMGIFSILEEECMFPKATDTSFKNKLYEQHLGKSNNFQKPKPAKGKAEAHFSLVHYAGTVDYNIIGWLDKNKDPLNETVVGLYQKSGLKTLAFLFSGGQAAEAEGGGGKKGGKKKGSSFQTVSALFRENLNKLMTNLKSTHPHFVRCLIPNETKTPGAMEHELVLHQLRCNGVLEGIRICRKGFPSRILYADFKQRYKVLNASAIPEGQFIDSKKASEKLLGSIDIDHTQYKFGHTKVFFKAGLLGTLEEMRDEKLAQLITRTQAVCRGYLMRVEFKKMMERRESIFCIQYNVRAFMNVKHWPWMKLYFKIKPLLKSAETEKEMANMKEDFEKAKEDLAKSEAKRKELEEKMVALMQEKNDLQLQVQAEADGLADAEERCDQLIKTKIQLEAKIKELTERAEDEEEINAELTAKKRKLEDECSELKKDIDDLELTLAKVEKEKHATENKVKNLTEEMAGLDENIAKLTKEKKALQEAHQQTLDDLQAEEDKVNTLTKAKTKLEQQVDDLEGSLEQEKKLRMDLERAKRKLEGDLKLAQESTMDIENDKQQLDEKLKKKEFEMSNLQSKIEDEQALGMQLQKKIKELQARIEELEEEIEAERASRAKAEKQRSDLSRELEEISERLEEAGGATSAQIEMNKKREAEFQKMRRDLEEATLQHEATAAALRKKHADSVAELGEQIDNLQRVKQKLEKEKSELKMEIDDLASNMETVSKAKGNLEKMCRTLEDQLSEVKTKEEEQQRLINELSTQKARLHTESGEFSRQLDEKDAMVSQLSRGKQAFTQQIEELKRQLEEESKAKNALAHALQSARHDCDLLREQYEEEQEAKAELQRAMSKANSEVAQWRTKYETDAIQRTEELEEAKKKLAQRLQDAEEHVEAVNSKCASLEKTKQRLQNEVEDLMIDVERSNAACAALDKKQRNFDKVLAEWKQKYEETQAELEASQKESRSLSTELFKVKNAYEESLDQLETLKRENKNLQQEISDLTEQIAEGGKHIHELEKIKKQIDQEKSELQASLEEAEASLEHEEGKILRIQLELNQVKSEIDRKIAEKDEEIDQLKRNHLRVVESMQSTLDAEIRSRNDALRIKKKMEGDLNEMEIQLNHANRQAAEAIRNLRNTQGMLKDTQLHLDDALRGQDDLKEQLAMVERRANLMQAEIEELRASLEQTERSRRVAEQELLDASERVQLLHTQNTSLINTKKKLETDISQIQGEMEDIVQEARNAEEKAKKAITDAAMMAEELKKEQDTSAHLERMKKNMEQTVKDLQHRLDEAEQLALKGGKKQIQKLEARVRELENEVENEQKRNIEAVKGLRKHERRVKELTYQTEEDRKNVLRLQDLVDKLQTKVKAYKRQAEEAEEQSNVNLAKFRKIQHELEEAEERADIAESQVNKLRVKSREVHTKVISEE
“mAb 3E10 scFv containing 3E10 VH and VkIII (Vk placed N-terminal of VH)” returned a localization of intravenously injected scFv fragments in tissues of FVB mice (histology with anti-his6 antibody) of 20%.

In a further test the target is HP8/HEVIN, extracellular matrix protein (UniProt Q14515). Nature of the test: binding of COS-7 expressed antibody to HP8; method and unit not given.
UniProt Q14515, sequence (Q14515 17-664 limits assumed): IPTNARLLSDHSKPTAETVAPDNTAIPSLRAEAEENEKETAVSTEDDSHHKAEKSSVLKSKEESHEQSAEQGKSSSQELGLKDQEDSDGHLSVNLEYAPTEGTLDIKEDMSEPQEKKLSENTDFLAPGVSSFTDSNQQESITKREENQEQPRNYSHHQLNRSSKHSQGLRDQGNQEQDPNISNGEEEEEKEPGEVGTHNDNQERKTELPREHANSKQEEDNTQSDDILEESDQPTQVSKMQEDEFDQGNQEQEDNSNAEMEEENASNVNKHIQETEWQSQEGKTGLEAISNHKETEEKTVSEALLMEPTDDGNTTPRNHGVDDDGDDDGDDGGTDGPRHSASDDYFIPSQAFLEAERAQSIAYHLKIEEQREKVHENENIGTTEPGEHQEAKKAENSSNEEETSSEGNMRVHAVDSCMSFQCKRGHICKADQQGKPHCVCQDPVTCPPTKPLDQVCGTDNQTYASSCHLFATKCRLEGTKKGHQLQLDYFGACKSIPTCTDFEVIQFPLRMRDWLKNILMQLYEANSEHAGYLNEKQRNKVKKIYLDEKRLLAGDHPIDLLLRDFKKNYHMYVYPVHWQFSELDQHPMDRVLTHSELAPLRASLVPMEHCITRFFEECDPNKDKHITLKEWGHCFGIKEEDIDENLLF
Substance “mAb 3E10 VH31 mutant heavy chain (D to N at residue 31, H CDR1) with native light chain (antibody)” had an Antibody Specificity, HP8 of 1.3.

“mAb 3E10 VH31 mutant heavy chain with Vk residue 27C mutant light chain (S to D, L CDR1) (antibody)” showed an Antibody Specificity, HP8 of 0.26.

As for “mAb 3E10 VH31 mutant heavy chain with Vk residue 32 mutant light chain (Y to F, L CDR1) (antibody)”, the Antibody Specificity, HP8 was 2.76.

“mAb 3E10 VH31 mutant heavy chain with Vk residue 92 mutant light chain (R to N, L CDR3) (antibody)”: the Antibody Specificity, HP8 is 1.21.

Take “mAb 3E10 VH31 mutant heavy chain with Vk residue 94 mutant light chain (F to D, L CDR3) (antibody)”: the Antibody Specificity, HP8 worked out at 0.2.

For the substance “recombinant mAb 3E10, native heavy chain with native (anti-dsDNA kIII) light chain, expressed in COS-7 cells (antibody)”, the Antibody Specificity, HP8 came to 2.02.
